Results published in patent US10912839B2, “Methods of treating cancer using compounds containing a vascular disrupting agent” (priority 2008, dated 2021).
Non-standard residues stand in square brackets, D forms with d. Residues, ends and D or L forms follow the SMILES beside them. No end group written: not given here. *: point of attachment. NH(Colchicin-10-yl) = COc1cc2c(c(OC)c1OC)-c1ccc(N*)c(=O)cc1[C@@H](NC(C)=O)CC2; FITC = O=C1OC2(c3ccc(O)cc3Oc3cc(O)ccc32)c2ccc(NC(=S)*)cc21; hPhe = N[C@@H](CCc1ccccc1)C(=O)O; Cit = NC(=O)NCCC[C@H](N)C(=O)O; βAla = NCCC(=O)O

Columns and labels:
[1] = Ex vivo prodrug stability in normal mouse plasma (LC/MS/MS); details: for stability in plasma and/or liver: alternative endcaps on MT-MMP prodrug; for stability in plasma: normal mouse plasma ex vivo
Text: Prodrug cleavage and metabolism were detected using LC/MS/MS. • a.

[2] = Ex vivo prodrug metabolism in HT1080 tumour homogenate (LC/MS/MS); assay type: in vitro ADME, human; details: for half-life: human, tissue homogenate, HT1080 tumour homogenate, mean of four independent experiments, read-out: Tumour t½
Text: (§1) Liver was representative of all normal tissues analysed. (FIG. 5) • d.
(§2) Half lives are the mean taken from four independent experiments. Liver represent murine liver homogenate and tumour represents HT1080

[3] = Ex vivo prodrug stability in normal mouse liver homogenate (LC/MS/MS); assay type: in vitro ADME; details: for half-life: mouse, tissue homogenate, murine liver homogenate, mean of four independent experiments, read-out: Liver t½; for stability in liver homogenate: normal mouse liver homogenate ex vivo
Text: as §1, §2

[4] = test system: HT1080 xenografts; assay: Dose response antitumour study, subcutaneous HT1080 xenografts; assay type: in vivo, Balb/C mice; details: for Growth delay: vs control
Method: (§3) ICT-2552 and ICT-2588 (‘prodrug’) were administered as a single dose via the intraperitoneal route to Balb/C mice bearing subcutaneous HT1080 xenografts. Each of the nine dosing groups comprised 8 mice. The anti-tumour effects of the compounds were assessed by determination of tumour volume and the existence of off-target toxicity was ascertained via monitoring mouse body weight.
(§4) The dosing groups evaluated ICT-2588 (prodrug) relative to the molar equivalent dose of ICT-2552 (warhead), and were: • 10% DMSO/oil (solvent control) • ICT-2588 at 37.5 mg/kg; 50.0 mg/kg; 62.5 mg/kg; 75.0 mg/kg • ICT-2552 at 7.5 mg/kg; 10.0 mg/kg; 12.5 mg/kg; 15 mg/kg Results

[5] = Off-target toxicity by mouse body weight in antitumour study; assay type: in vivo, Balb/C mice
Method: as §3, §4
The weight of all mice was within the tolerated loss of 15% of bodyweight, therefore the compounds are not classified as toxic to the whole body system.

[6] = Tissue levels of prodrug and VDA2 after intraperitoneal dosing of HT1080 tumour-bearing mice; assay type: in vivo; details: for VDA2 levels in tumour following prodrug administration: HT1080 tumour; for prodrug accumulation in tissues / site of highest prodrug levels: HT1080 tumour-bearing mice
Text: as §1

[7] = ICT-2552 10.0 mg/kg single i.p.
[8] = ICT-2552 12.5 mg/kg single i.p.
[9] = ICT-2552 15.0 mg/kg single i.p.

Compound: Quinic acid+2×D-Serine: conjugate based on MT-MMP prodrug (SEQ ID NO: 4) with quinic acid+2×D-Serine endcap (RS[Cit]G[hPhe]YLY; not fully specified (N-terminus); also: quinic acid + 2×D-Ser endcap, end not given here)
- stability in plasma and/or liver [1]: insufficiently stable

Compound: COc1cc2c(c(OC)c1OC)-c1ccc(NC(=O)[C@H](Cc3ccc(O)cc3)NC(=O)[C@H](CC(C)C)NC(=O)[C@H](CC(N)=O)NC(=O)[C@H](CCc3ccccc3)NC(=O)CNC(=O)[C@H](CCCNC(N)=O)NC(=O)[C@H](CO)NC(=O)[C@H](CCCNC(=N)N)NC(=O)CCNC(=S)Nc3ccc4c(c3)C(=O)OC43c4ccc(O)cc4Oc4cc(O)ccc43)c(=O)cc1[C@@H](NC(C)=O)CC2 [ICT3078] ({FITC-βAla}-RS[Cit]G[hPhe]NLY-{NH(Colchicin-10-yl)})
- half-life [2]: 11 min
- half-life [3]: 76 min

Compound: COc1cc2c(c(OC)c1OC)-c1ccc(NC(=O)[C@H](Cc3ccc(O)cc3)NC(=O)[C@H](CC(C)C)NC(=O)[C@H](CO)NC(=O)[C@H](CCc3ccccc3)NC(=O)CNC(=O)[C@H](CCCNC(N)=O)NC(=O)[C@H](CO)NC(=O)[C@H](CCCNC(=N)N)NC(=O)CCNC(=S)Nc3ccc4c(c3)C(=O)OC43c4ccc(O)cc4Oc4cc(O)ccc43)c(=O)cc1[C@@H](NC(C)=O)CC2 [ICT3054] ({FITC-βAla}-RS[Cit]G[hPhe]SLY-{NH(Colchicin-10-yl)})
- half-life [2]: 9 min
- half-life [3]: 66 min

Compound: COc1cc2c(c(OC)c1OC)-c1ccc(NC(=O)[C@H](Cc3ccc(O)cc3)NC(=O)[C@H](CC(C)C)NC(=O)[C@H](Cc3ccc(O)cc3)NC(=O)[C@H](CCc3ccccc3)NC(=O)CNC(=O)[C@H](CCCNC(N)=O)NC(=O)[C@H](CO)NC(=O)[C@H](CCCNC(=N)N)NC(=O)[C@@H](CO)NC(=O)[C@@H](CO)NC(=O)[C@H](N)CO)c(=O)cc1[C@@H](NC(C)=O)CC2 [3×D-Serine] (H-[dS][dS][dS]RS[Cit]G[hPhe]YLY-{NH(Colchicin-10-yl)})
- stability in plasma and/or liver [1]: insufficiently stable

Compound: COc1cc2c(c(OC)c1OC)-c1ccc(N)c(=O)cc1[C@@H](NC(C)=O)CC2 [ICT-2552, azademethylcolchicine]
- Mean time to RTV2 ([4]; ICT-2552 7.5 mg/kg single i.p.): 4.0 days
- Median time RTV2 ([4]; ICT-2552 7.5 mg/kg single i.p.): 3.8 days
- Growth delay ([4]; ICT-2552 7.5 mg/kg single i.p.): 1.6 days
- Mean time to RTV2 [4, 7]: 4.4 days
- Median time RTV2 [4, 7]: 4.2 days
- Growth delay [4, 7]: 2.0 days
- Mean time to RTV2 [4, 8]: 4.5 days
- Median time RTV2 [4, 8]: 4.7 days
- Growth delay [4, 8]: 2.5 days
- Mean time to RTV2 [4, 9]: 4.1 days
- Median time RTV2 [4, 9]: 4.1 days
- Growth delay [4, 9]: 1.9 days
- delay in tumour growth ([4]; all evaluated doses): significant delay in tumour growth
- tumour response ([4]; all tested dose levels): Tumour responses were observed
- Maximum % weight loss ([5]; ICT-2552 7.5 mg/kg): 3%
- day of maximum weight loss ([5]; ICT-2552 7.5 mg/kg): 4 days
- Maximum % weight loss ([5]; ICT-2552 10.0 mg/kg): 6 (6) %
- day of maximum weight loss ([5]; ICT-2552 10.0 mg/kg): 6 (6) day
- Maximum % weight loss ([5]; ICT-2552 12.5 mg/kg): 6%
- day of maximum weight loss ([5]; ICT-2552 12.5 mg/kg): 1 days
- Maximum % weight loss ([5]; ICT-2552 15.0 mg/kg): 5%
- day of maximum weight loss ([5]; ICT-2552 15.0 mg/kg): 1 days

Compound: COc1cc2c(c(OC)c1OC)-c1ccc(NC(=O)[C@H](Cc3ccc(O)cc3)NC(=O)[C@H](CC(C)C)NC(=O)[C@H](CC(C)C)NC(=O)[C@H](CCc3ccccc3)NC(=O)CNC(=O)[C@H](CCCNC(N)=O)NC(=O)[C@H](CO)NC(=O)[C@H](CCCNC(=N)N)NC(=O)CCNC(=S)Nc3ccc4c(c3)C(=O)OC43c4ccc(O)cc4Oc4cc(O)ccc43)c(=O)cc1[C@@H](NC(C)=O)CC2 [ICT3080] ({FITC-βAla}-RS[Cit]G[hPhe]LLY-{NH(Colchicin-10-yl)})
- half-life [2]: 48 min
- half-life [3]: 134 min

Compound: COc1cc2c(c(OC)c1OC)-c1ccc(NC(=O)[C@H](Cc3ccc(O)cc3)NC(=O)[C@H](CC(C)C)NC(=O)[C@H](Cc3ccc(O)cc3)NC(=O)[C@H](CCc3ccccc3)NC(=O)CNC(=O)[C@H](CCCNC(N)=O)NC(=O)[C@@H]3CCCN3C(=O)[C@H](CCC(=O)O)NC(=O)CCNC(=S)Nc3ccc4c(c3)C(=O)OC43c4ccc(O)cc4Oc4cc(O)ccc43)c(=O)cc1[C@@H](NC(C)=O)CC2 [Prodrug-1] ({FITC-βAla}-EP[Cit]G[hPhe]YLY-{NH(Colchicin-10-yl)})
- prodrug level after 24 hours post-dosing ([6]; 24 hours): not detectable
- VDA2 levels in tumour following prodrug administration [6]: detected at high levels
- prodrug accumulation in tissues [6]: accumulated and was detected in all tissues analysed
- site of highest prodrug levels [6]: Highest prodrug-1 levels were observed in the tumour
- VDA2 levels in normal tissues following prodrug administration ([6]; normal tissues): detectable at low levels
- VDA2 in normal tissues after 24 hours post-dosing ([6]; normal tissues, 24 hours): undetectable
- VDA2 in tumour after 24 hours post-dosing ([6]; tumour, 24 hours): still detectable at high levels
- metabolism in tumour homogenate ([2]; HT1080 xenograft homogenate ex vivo): metabolised
- stability in liver homogenate [3]: stable
- stability in plasma [1]: stable

Compound: COc1cc2c(c(OC)c1OC)-c1ccc(NC(=O)[C@H](Cc3ccc(O)cc3)NC(=O)[C@H](CC(C)C)NC(=O)[C@H](Cc3ccc(O)cc3)NC(=O)[C@H](CCc3ccccc3)NC(=O)CNC(=O)[C@H](CCCNC(N)=O)NC(=O)[C@H](CO)NC(=O)[C@H](CCCNC(=N)N)NC(=O)CCNC(=S)Nc3ccc4c(c3)C(=O)OC43c4ccc(O)cc4Oc4cc(O)ccc43)c(=O)cc1[C@@H](NC(C)=O)CC2 [ICT-2588] ({FITC-βAla}-RS[Cit]G[hPhe]YLY-{NH(Colchicin-10-yl)})
- VDA2 levels in tumour following prodrug administration [6]: High concentrations
- prodrug accumulation in tissues [6]: accumulated and was detected in all tissues analysed
- site of highest prodrug levels [6]: Highest prodrug-2 levels were observed in the tumour
- VDA2 in plasma following prodrug administration ([6]; plasma): undetectable
- VDA2 level in tumour relative to normal tissues ([6]; tumour vs normal tissues): 10 times higher
- levels of prodrug-2 and VDA2 in tumour 48 hours post administration ([6]; tumour, 48 hours): still detectable
- metabolism in tumour homogenate, high versus low MT-MMP ([2]; HT1080 (high MT-MMP) relative to MCF7 (low MT-MMP) homogenate): metabolised rapidly
- half-life [2]: 33 min
- half-life [3]: 149 min
- stability in liver homogenate [3]: remained stable
- Maximum % weight loss ([5]; ICT-2588 37.5 mg/kg): 3 (3) %
- day of maximum weight loss ([5]; ICT-2588 37.5 mg/kg): 3 (3) day
- Maximum % weight loss ([5]; ICT-2588 50.0 mg/kg): 5%
- day of maximum weight loss ([5]; ICT-2588 50.0 mg/kg): 3 days
- Maximum % weight loss ([5]; ICT-2588 62.5 mg/kg): 4%
- day of maximum weight loss ([5]; ICT-2588 62.5 mg/kg): 3 days
- Maximum % weight loss ([5]; ICT-2588 75.0 mg/kg): 5%
- day of maximum weight loss ([5]; ICT-2588 75.0 mg/kg): 3 days
- stability in plasma [1]: remained intact

Compound: COc1cc2c(c(OC)c1OC)-c1ccc(NC(=O)[C@H](Cc3ccc(O)cc3)NC(=O)[C@H](CC(C)C)NC(=O)[C@@H]3CCCN3C(=O)[C@H](CCc3ccccc3)NC(=O)CNC(=O)[C@H](CCCNC(N)=O)NC(=O)[C@H](CO)NC(=O)[C@H](CCCNC(=N)N)NC(=O)CCNC(=S)Nc3ccc4c(c3)C(=O)OC43c4ccc(O)cc4Oc4cc(O)ccc43)c(=O)cc1[C@@H](NC(C)=O)CC2 [ICT3097] ({FITC-βAla}-RS[Cit]G[hPhe]PLY-{NH(Colchicin-10-yl)})
- half-life [2]: 24 min
- half-life [3]: 110 min

Compound: COc1cc2c(c(OC)c1OC)-c1ccc(NC(=O)[C@H](Cc3ccc(O)cc3)NC(=O)[C@H](CC(C)C)NC(=O)[C@H](C)NC(=O)[C@H](CCc3ccccc3)NC(=O)CNC(=O)[C@H](CCCNC(N)=O)NC(=O)[C@H](CO)NC(=O)[C@H](CCCNC(=N)N)NC(=O)CCNC(=S)Nc3ccc4c(c3)C(=O)OC43c4ccc(O)cc4Oc4cc(O)ccc43)c(=O)cc1[C@@H](NC(C)=O)CC2 [ICT3053] ({FITC-βAla}-RS[Cit]G[hPhe]ALY-{NH(Colchicin-10-yl)})
- half-life [2]: 17 min
- half-life [3]: 76 min

Compound: COc1cc2c(c(OC)c1OC)-c1ccc(NC(=O)[C@H](Cc3ccc(O)cc3)NC(=O)[C@H](CC(C)C)NC(=O)[C@H](CC(=O)O)NC(=O)[C@H](CCc3ccccc3)NC(=O)CNC(=O)[C@H](CCCNC(N)=O)NC(=O)[C@H](CO)NC(=O)[C@H](CCCNC(=N)N)NC(=O)CCNC(=S)Nc3ccc4c(c3)C(=O)OC43c4ccc(O)cc4Oc4cc(O)ccc43)c(=O)cc1[C@@H](NC(C)=O)CC2 [ICT3055] ({FITC-βAla}-RS[Cit]G[hPhe]DLY-{NH(Colchicin-10-yl)})
- half-life [2]: 7 min
- half-life [3]: 67 min
